Results from the supplement of paper PMC6379048.

Key:
Assay in all cases: Kd (EC50 corrected by depletion factor)
FUBP1 = molecular target: T1, FUBP1 (UniProt Q96AE4)
T1 sequence: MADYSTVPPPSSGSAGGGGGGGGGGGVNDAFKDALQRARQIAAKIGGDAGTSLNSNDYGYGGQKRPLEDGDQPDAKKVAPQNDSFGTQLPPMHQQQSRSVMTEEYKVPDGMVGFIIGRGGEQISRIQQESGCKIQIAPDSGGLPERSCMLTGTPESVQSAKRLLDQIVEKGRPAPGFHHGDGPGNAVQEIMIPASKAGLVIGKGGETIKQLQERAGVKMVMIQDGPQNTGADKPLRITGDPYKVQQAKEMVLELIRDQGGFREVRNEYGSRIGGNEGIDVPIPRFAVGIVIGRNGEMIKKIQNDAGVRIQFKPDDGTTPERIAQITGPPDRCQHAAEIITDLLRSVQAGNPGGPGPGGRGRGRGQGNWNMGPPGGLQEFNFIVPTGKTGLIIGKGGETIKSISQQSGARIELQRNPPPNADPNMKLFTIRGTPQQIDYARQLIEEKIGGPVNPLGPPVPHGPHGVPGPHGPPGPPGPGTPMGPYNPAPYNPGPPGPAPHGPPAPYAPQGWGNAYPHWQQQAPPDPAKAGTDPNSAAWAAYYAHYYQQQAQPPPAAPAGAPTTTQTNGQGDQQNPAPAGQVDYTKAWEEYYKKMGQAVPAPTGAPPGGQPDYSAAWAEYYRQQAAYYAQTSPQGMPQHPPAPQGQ
Summary of the method: (§1)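 HEK293-FT lysate (2.5 mg protein/well) was treated with free RNA oligos (0 nM to 30 μM) for 1 h at 4°C, then with the same oligos on NHS-Sepharose beads for 30 min at 4°C. Bound proteins were quantified by label-free LC-MS/MS relative to the control. EC50 came from a four-parameter log-logistic fit, and Kd is EC50 times a protein-dependent depletion factor.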

RBM47 = molecular target: T2, RBM47 (UniProt A0AV96)
T2 sequence: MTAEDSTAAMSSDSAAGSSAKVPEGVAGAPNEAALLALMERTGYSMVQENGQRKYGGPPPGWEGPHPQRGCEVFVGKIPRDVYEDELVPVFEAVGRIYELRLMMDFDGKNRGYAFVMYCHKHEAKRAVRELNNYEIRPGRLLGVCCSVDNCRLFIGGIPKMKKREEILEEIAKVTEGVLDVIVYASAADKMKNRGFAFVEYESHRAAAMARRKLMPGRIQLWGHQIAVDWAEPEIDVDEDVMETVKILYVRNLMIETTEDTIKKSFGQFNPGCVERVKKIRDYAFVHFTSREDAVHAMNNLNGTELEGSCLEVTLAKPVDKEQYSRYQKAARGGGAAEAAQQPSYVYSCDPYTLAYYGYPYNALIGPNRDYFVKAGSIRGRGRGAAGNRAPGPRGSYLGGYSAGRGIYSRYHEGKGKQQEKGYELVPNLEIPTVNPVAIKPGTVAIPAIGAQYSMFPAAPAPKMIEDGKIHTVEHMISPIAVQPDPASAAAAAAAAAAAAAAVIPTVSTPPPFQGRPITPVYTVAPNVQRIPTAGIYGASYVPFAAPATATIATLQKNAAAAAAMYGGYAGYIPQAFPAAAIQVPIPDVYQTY
Summary of the method: as §1

U2AF1 = molecular target: T3, U2AF1 (UniProt Q01081)
T3 sequence: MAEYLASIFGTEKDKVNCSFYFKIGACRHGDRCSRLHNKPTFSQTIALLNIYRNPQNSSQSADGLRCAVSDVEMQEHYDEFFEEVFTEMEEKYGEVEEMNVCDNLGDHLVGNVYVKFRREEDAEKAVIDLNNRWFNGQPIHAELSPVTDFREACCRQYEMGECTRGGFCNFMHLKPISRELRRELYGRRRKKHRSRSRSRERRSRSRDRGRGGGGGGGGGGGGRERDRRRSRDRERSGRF
Summary of the method: as §1

ZRANB2 = molecular target: T4, ZRANB2 (UniProt O95218)
T4 sequence: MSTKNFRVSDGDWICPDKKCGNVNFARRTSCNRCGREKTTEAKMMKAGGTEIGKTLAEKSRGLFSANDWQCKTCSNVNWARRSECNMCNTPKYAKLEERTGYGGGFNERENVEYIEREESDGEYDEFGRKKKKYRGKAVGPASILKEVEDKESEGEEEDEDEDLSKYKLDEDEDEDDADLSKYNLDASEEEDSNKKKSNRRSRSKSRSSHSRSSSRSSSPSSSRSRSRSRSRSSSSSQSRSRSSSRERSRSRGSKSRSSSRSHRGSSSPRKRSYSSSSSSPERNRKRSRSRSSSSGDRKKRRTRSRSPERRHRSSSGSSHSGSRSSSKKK
Summary of the method: as §1

HNRNPU = HNRNPU (UniProt Q00839)
Sequence of HNRNPU (Q00839 whole entry): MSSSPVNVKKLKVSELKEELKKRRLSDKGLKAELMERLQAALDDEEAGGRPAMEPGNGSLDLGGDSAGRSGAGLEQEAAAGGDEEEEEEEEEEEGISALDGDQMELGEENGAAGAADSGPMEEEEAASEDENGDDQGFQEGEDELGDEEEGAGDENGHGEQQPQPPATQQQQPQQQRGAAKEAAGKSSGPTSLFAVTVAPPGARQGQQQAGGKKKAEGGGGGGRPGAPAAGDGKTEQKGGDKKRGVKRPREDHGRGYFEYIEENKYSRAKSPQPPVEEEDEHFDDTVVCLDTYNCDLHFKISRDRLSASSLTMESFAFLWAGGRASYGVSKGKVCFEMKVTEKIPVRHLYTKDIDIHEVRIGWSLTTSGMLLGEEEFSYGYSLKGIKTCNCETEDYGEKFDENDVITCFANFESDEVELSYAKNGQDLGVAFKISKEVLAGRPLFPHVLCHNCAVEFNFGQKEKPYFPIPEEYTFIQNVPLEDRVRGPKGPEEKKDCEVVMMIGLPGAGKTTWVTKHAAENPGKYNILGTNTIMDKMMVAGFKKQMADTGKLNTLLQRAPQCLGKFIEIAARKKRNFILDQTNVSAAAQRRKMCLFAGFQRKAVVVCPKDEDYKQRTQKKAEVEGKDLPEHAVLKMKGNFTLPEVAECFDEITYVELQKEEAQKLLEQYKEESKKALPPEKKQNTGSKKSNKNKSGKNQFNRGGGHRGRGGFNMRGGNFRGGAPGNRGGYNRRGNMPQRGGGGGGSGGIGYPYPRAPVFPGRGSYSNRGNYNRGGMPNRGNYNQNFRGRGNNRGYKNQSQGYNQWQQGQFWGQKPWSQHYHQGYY
Summary of the method: as §1

MRPL39 = MRPL39 (UniProt Q9NYK5)
Summary of the method: as §1

PRPF3 = molecular target: T5, PRPF3 (UniProt O43395)
T5 sequence: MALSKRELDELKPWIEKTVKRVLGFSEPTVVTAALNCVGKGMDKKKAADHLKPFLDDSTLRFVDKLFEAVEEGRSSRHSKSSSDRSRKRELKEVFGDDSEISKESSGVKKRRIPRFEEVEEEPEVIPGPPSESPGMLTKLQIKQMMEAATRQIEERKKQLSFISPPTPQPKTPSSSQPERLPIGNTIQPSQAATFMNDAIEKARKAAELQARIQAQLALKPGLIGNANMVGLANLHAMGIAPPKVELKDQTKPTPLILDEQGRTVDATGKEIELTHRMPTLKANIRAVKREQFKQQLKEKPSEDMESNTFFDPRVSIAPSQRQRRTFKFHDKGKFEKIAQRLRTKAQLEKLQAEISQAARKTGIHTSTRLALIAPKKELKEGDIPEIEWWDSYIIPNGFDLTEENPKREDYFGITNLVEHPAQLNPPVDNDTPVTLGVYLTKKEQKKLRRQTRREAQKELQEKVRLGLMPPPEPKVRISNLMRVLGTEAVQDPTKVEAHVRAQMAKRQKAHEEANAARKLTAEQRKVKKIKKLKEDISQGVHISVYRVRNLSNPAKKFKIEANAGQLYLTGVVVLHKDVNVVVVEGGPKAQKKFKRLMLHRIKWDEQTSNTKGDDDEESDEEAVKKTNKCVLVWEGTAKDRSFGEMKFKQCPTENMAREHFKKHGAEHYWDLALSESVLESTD
Summary of the method: as §1

## AAUAAA
FUBP1
  Kd: 673 nM
RBM47
  Kd: 417 nM
U2AF1
  Kd: 202 nM
ZRANB2
  Kd: 217 nM

## CUGUCCU
HNRNPU
  Kd: 90.1 nM
MRPL39
  Kd: 101 nM

## UAUUUAU
PRPF3
  Kd: 2670 nM
